The values below come from a protein production outcome set (Wang et al. 2014).
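Note: failed if final PepcDB status was selected cloned or expressed and not failed if soluble or beyond.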

This data set in a line: label from the status in PepcDB records.
Consider “RTKDGLTLYTRRWDVESPRAVICLVHGLGEHSGRYEHVARFFNENGISFAAFDLRGHGRSEGKRGHAEYQQLMDDITLFLQSLDYDCPKILYGHSMGGNLALNYILRYDPDIAGGIISAPFLALPKELPKHLFFILKLLNVVAPSIQLSNGIDPNLISRDREVVEAYVSDPLVHDKISPRFILQSLEAGKWALENADRLRKPILLIHGTADQITSYRASQEFAKRAGELCKFVSYEGFYHEPHNEPEKERVLADMLKWIEEVI”, for which the protein production result is on record as “failed”.

As to “RTSYLEFNQRDKNSPYNNVNLRKAISAAIDRNALVDKILGDGSVVATGLIPEGMSYSPTDDTDFADENKKIVEYSPEKAKEYWAKAKKELGITTLKMDIVADDVDSTKKLAEYIQGTLKDTLEGIDVTVSPVPFSVRIDRGSRGDFETILGGWAADYADPSSFLDLFVTGNNYNRGRFSSKAYDELIEASATRDASDPEKRWEDMVKAEKLLIGEETALAPLYQKA”, the protein production entry is on record as “failed”.

In the case of “RVTVMLAAFEGWNDAGEAASDALHYLNKLWDGKKVATVDAEEYYDFQFTRPTVRRTSSGARKVKWPSTRIYKAEVPDSNVDVVLVLGTEPSYRWRAYTTELLVHAEALKVDSVILVGALLADVPHSRPIPVSTTTEDSSLRERLNLEASQYEGPVGIVGVLAEFAMLAGLPTVSLWAAVPHYVAQPPSPKAQLAILHRIEDLLQVPLDSQALAEESEAWERGVDELATEDPEITAYVRQLEEAKDTADLPE”, the protein production entry is recorded as “not failed”.

As for “RYENILLPTDGSEGADLAIEWGITLAEIYDATVHTLYSVDTSRFGGVEGSAEIHDALEETGQEALETVHERARDADVSIAGNIASGPAARAILSYSEEHDIDLIAMGTHGRSGLTRYLTGSVTETVVRNAAVPVCCVPMQ”, the protein production entry is reported as “failed”.

For “RYGGDSTMIEMAFNKILIYAFGQFSAYSVWFDNNYLNIVDTIPGYGVFTGVVSKIFDFDRVSGFYDSFTYISNEDYTNVFTLSR”, the protein production entry is reported as “failed”.

“RYREGLSEALKEPEAKDPGFLERLVALYEEGGEDLLTPPGRVDVRVGEVEGLALVQAGFQKGEWLGELTLIGPLRMRYAEALSVAFSLSQVYTGQHAD”: the protein production result is recorded as “failed”.

As to “SAAETRNVAGAEAPPPQKRYYRQRAHSNPMADHTLRYPVKPEEMDWSELYPEFFAPLTQNQSHDDPKDKKEKRAQAQVEFADIGCGYGGLLVELSPLFPDTLILGLEIRVKVSDYVQDRIRALRAAPAGGFQNIACLRSNAMKHLPNFFYKGQLTKMFFLFPDPHFKRTKHKWRIISPTLLAEYAYVLRVGGLVYTITDVLELHDWMCTHFEEHPLFERVPLEDLSEDPVVGHLGTSTEEGKKVLRNGGKNFPAIFRRIQDPVLQAVTSQTSLPGH”, the protein production result is “not failed”.

“SAAVKDSCGKGEMATGNGRRLHLGIPEAVFVEDVDSFMKQPGNETADTVLKKLDEQYQKYKFMELNLAQKKGRLKGQIPEIKQTLEILKYMQKKKESTNSMETRFLLADNLYCKASVPPTDKVCLWLGANVMLEYDIDEAQALLEKNLSTATKNLDSLEEDLDFLRDQFTTTEVNMARVYNWDVKRRNKDDSTKNKA”: the protein production result is “not failed”.

Take “SAPPKQSWEQAVDTLRDIGALNAAGQITELGRTLATLPTDPRLGASLLHCGGGAAPTIAALSLDARGDIPRAIAAMSHQQRFTREVARLAGFVP”: the protein production result is recorded as “failed”.

Consider “SASKRWSPPRGIHFTVEEGDLGFTLRGNTPVQVHFLDPHCSASLAGAKEGDYIVSIQGVDCKWLTVSEVMKLLKSFGGEEVEMKVVSLLDSTSSMHNK”, for which the protein production entry is “not failed”.

Turning to “SAVDCPQHCDSSECKSSPRCERTVLDDCGCCRVCAAGRGETCYRTVSGMDGMKCGPGLRCQPSNGEDPFGEEFGICKDC”, the protein production entry is “failed”.

For “SAVSARLRTTAEDTSIAKSTQDPIGDTEISVANAKGSSDSNIKNSPGGNSVGQESELEHVPEEDDSGDKEADHEDSETATAKKRKAQPLKNPKKSLKRGRVPAPLNLSDSNTNTHGGNIKDGNLASSNSAHFPPVANQNVKSAPAQVTQHSKFQPRVQYLGKASSRQSIQVNNSSNSYGKPHMPSAGIMSAMNPYMPMNRYIMSPYYNPYGIPPPHMLNKPIMTPYVSYPYPMGPRTSIPYAMQGGNARPYEENEYSASNYRNKRVNDSYDSPLSGTASTGKTRRSEEGSRNSSVGSSANAGPTQQRADLRPADMIPAEEYHFERDALLSANTKARSASTSTSTSTSTNRDRSSWHEAEPNKDEEEGTDLAIEDGAVPTPTFTTFQRTSQPQQQSPSLLQGEIRLSSHIFAFEFPLSSSNVDKKMFMSICNKVWNESKELTKKSSSHHRTGK”, the protein production result is “failed”.

For “SDDNKTTGATYDPNQPVTVESFMPVEGKLREKVIVKGSNFGTDKSKVKVYFVDEAAERLSTVIGIDNNTLYCLAPRQLPGGNRIKVIVDGKEVTTDGTFKYEQAQNVSTISGSASKDGNDDGDLASAKFKYMWGIAAVGNNTVLAYQRDDPRVRLISVDDNKVTTVHPGFKGGKPAVTKDKQRVYSIGWEGTHTVYVYMKASGWAPTRIGQLGSTFSGKIGAVALDETEEWLYFVDSNKNFGRFNVKTQEVTLIKQLELSGSLGTNPGPYLIYYFVDSNFYMSDQNLSSVYKITPDGECEWFCGSATQKTVQDGLREEALFAQPNGMTVDEDGNFYIVDGFKGYCLRKLDILDGYVSTVAGQVDVASQIDGTPLEATFNYPYDICYDGEGGYWIAEAWGKAIRKYAVE”, the protein production entry is listed as “not failed”.

In the case of “SDILKDPPSEANSIQSANATTKTSETNHTSRPRLKNVDRSTAQQLAVTVGNVTVIITDFKEK”, the protein production entry is “failed”.

“SDISLLLDVANAACHKGHVADARSIYEGVLAVRPGFAPARLGQALSHAVVNEFAEAERIINEEVLAEAPEDTDAKALLGLTYFLAGRDEEARDVLRPVAEGDTPAAYVARG”: the protein production entry was “failed”.

For “SDLPDSASRVFCGRILSMVNTDDVNAIILAQKNMLDRFEKTNEMLLNFNNLSSARLQQMSERFLHHTRTLVEMKRDLDSIFRRIRTLKGKLARQHPEAFSHIPEASFLEEEDEDPIPPSTTTTIATSEQSTGSCDTSPDTVSPSLSPGFEDLSHVQAGSPAINGRSQTDDEEMTGE”, the protein production result is on record as “failed”.

Take “SDQTRYSRLANITKIINTKLELREVLQRVTMAISEEIVRCDAVGIYLPEEDGTFRGFAGKPETINGVTLDTQVIDPGIDLLAKEVIETKKTIYIPDTSKDYRPDPRPVDAFKIKSLLALPISFGQELFGLVFLFDYGVPMNLTDSEIQSVEAYVNMAAVAIQNAKNLTQKENLIAEKQLLLNVTRDLSVCSS”: the protein production entry is “failed”.

Take “SDSRPAVLDLIGNTPLVRVTRFDTGPCTLYLKLESQNPGGSIKDRIGVAMIEAAERDGRLRPGGTIVEATAGNTGLGLALVGRAKGYRVVLVVPDKMSTEKVLHLRAMGAEVHITRSDVGKGHPEYYQDVAARLAQDIPGAFFADQFNNPANPLAHECGTGPELWAQTGHDLDAIVVGVGSSGTLTGLTRFFQKVQPELEMVLADPEGSIMAEYSRSGTLGTPGSWAVEGIGEDFVPAIADLSSVRHAYSISDEESFAMARELLRVEGIPGGSSTGTLLAAALRFCREQKEPKRVVSFVCDTGTRYLSKIYNDQWMTDQGLLQRKHYGDLRDIIARRFEEGRVISVGPDDTLLTAFQRMRLADVSQLPVLDDGKLVGVIDESDILLGVHADAPRFRDAVSSAMNAAPETLAPGASLAQLQAVLDRGLVAIVADASGFHGLITRFDLL”: the protein production entry is “failed”.

Take “SEDPVFTFGLIADVQYADIEDGENYLRTRRRYYRGSADLLRDAVLQWRRERVQCVVQLGDIIDGHNRRRDASDRALDTVMAELDACSVDVHHVWGNHEFYNFSRPSLLSSRLNSAQRTGTDTGSDLIGDDIYAYEFSPAPNFRFVLLDAYDLSVIGREEESEKHTHSWRILTQHNHNLQDLNLPPVSVGLEQRFVKFNGGFSEQQLQWLDAVLTLSDHKQERVLIFSHLPVHPCAADPICLAWNHEAVLSVLRSHQSVLCFIAGHDHDGGRCTDSSGAQHITLEGVIETPPHSHAFATAYLYEDRMVMKGRGRVEDLTITYS”: the protein production result is reported as “not failed”.

Turning to “SEEDDEVVAMIKELLDTRIRPTVQEDGGDVIYRGFEDGIVRLKLQGSCTSCPSSIITLKSGIQNMLQFYIPEVEGVEQV”, the protein production entry is on record as “not failed”.

Turning to “SEEPPVREEEEEEGEEDEERDEVGPEGALGKSPFQLTAEDVYDISYLLGRELMALGSDPRVTQLQFKVVRVLEMLEALVNEGSLALEELKMERDHLRKEVEGLRRQSPPASGEVNLGPNKMVVDLTDPNRPRFTLQELRDVLQERNKLKSQLLVVQEELQCYKSGLIPPREGPGGRREKDAVVTSAKNAGRNKEEKTIIKKLFFFRSGKQT”, the protein production entry was “failed”.

Consider “SEPGEELEEEGSPGGREDGFTAEHLAAEAMAADMDPWLVFDARTTPATELDAWLAKYPPSQVTRYGDPGSPNSEPVGWIAVYGQGYSPNSGDVQGLQAAWEALQTSGRPITPGTLRQLAITHHVLSGKWLMHLAPGFKLDHAWAGIARAVVEGRLQVAKVSPRAKEGGRQVICVYTDDFTDRLGVLEADSAIRAAGIKCLLTYKPDVYTYLGIYRANRWHLCPTLYESRFQLGGSARGSRVLDRANNVELT”, for which the protein production result is reported as “not failed”.

Take “SESICNSLNSKLEPTLENLENLDVSAFQAPEDLLDGCRIYLCGFSGRKLDKLRRLINSGGGVRFNQLNEDVTHVIVGDYDDELKQFWNKSAHRPHVVGAKWLLECFSKGYMLSEEPYIH”: the protein production entry is “not failed”.

Regarding “SESKIACHHTVHGFEQRRGLHSRNEKAMEYVAKGWSAIKEVERVIDYCELNDRRLIPLLRGAKENFELALEADNLNTHARYWLSKLHLKYHVPGACKAVGAALLVEAADMGNADAQYELGCRLRVENDHVQSDQQAFHYIENAVDQLHPGALYLLGIVYLTGDCVKQDVDSAIWCFHRASEKGHAGAAIAYGSLLLRGVQVPESLTKLNVVGVSPPKRARKNLENPEMNPLEMAKEQFQIAARAGCDLGLKWLQRVEQEEKLLMREQDNECAYV”, the protein production entry was “failed”.

For the sequence “SESQDIKALQKELEQFAKLLKQKRITLGYTQADVGLTLGVLFGKVFSQTTICRFEALQLSFKNMCKLRPLLQKWVEEADNNENLQEICKAETLVQARKRKRTSIENRVRGNLENLFLQCPKPTLQQISHIAQQLGLEKDVVRVWFCNRRQKGKRSSSDYAQ”, the protein production result was “not failed”.

Regarding “SETQSFVVSVAGSDRVGIVHDFSWALKNISANVESSRMACLGGDFAMIVLVSLNAKDGKLIQSALESALPGFQISTRRASSVAERHVSPDTREYELYVEGPDSEGIVEAVTAVLAKKGANIVELETETLPAPFAGFTLFRMGSRVAFPFPLYQEVVTALSRVEEEFGVDIDLEEVVEGEDSEEDDDSPNSPVGRH”, the protein production entry is “not failed”.

Take “SGCGGSRADAIEPRYYESWTRETESTWLTYTDSDAPPSAAAPDSGPEAGGLHSGMLEDGLPSNGVPRSTAPGGIPNPEKKTNCETQCPNPQSLSSGPLTQKQNGLQTTEAKRDAKRMPAKEVTINVTDSIQQMDRSRRITKNCVN”: the protein production result was “failed”.

Consider “SGCIQSITCKARIRRENIVVYDVCATIDQCPTRIEETSPIVLRYKTPYFKASARVVMPPIPRHETWVVGWIQACNQMEFFNTYSDLGMSSWELPDLREGRVKAISDSDGVSYPWYGNTTETVTLVGPTNKISRFSVSMNDNFYPSVTWAVPVSDSNVPLLTRIKRDQSFTTWLVAMNTTTKEKIILQTIKWRMRVDIEVDPLQLLGQRARLVGRTQQEQPRILSRMEPIPPNALVKPNANDAQVLMWRPKRGPPLVVIPPK”, for which the protein production entry was “not failed”.
